Experimental data as given in a protein production outcome set (Wang et al. 2014).

Test: label from the status in PepcDB records

Sequence: MTEPYAVPVPRGYRVGVWEVHAPIATGAFGSVYAARRTGGDDTKASPTRPGGDDNTKAPPTRPGGDGTGHRPSRPGTTDTAGTDDSHGTGTGTGTGTPSRAQTDTAHPAEGDTDDPGHTSGNGTTGTDGTRRSHGTGTGTPSRAHTDTAHPAEGDTDNPGHTSGNGTTGTDGTGRSHGTGTGTGTHNPSRVQTGAAHPAKGDTDNPGRTGGDGTARRPGRAGVVGAGRGGDAGGEVPDTVALKFLPTGTGTPRQLAHLRDLVEREVELLRRLRRPRLIRMYETLTVDDPAHPRLDGATVLVLERAEGSLSALLAATPRPPAGPALLAQVCEGLQQLHRAGWVHGDLKPANVLLMADGSARLADFNMAAELEGTHAYTPAFATPDYTPPELLWSEIGERGRRIRPSADVWAFGVLAHLVLTGSFPLPGGTPTARRDAAVAYARGGHELRLSPEPPPGWREIVRACLTRTHADRIGTDALLRRVTGTTEGASGGAGFSPRTRARPRRRVLAALAAGLLALAALGYGVARWAGDGREPAAGPRPGGTGSVAAASYGAAELRTDRDVPPAYRLLIVETAHDCDREEVSPALIAAMLKVESDFDPDLADPAKDEYGIARWTPSVLRWWMNEDGTPGETVPQPPFPPAESVPAMGRYLCWIAPRLDAGLPGDRSVLVAVAYRTSYRKVNDAGGVPPKYRDYADRVAHHLKEYTPRRGK
- protein production: failed

Sequence: MKNLTSIRPNTSRPARLAALKQSFQDWNNTSDVMARLARRLSTTLSLEAQLSILAEEMTDMVPFDSLNYRHRIARQDFIFSTGMGGPHRCEYRLSLEGHQYGTLTLHRRQRFSEEELTGIEMMLSGAICHIRNACQFIAIEQTALTDSLTGIGNKRALDEALQRASAMADRHGAPWSLILCDLDHFKLINDNHGHVVGDHILARTAEKLEQALRNSDTVYRFGGEEFAILLPHTNEQEARDVADRIRGAIESIRVDGGETPLTVTASCGVAMHLTDEQPEQWLARADEALYRAKAAGRNCTRVFASIS
- protein production: failed

Sequence: MPRSTWFKALLLLVALWAPLSQAETGWQPIQETIRKSDKDNRQYQAIRLDNGMVVLLVSDPQAVKSLSALVVPVGSLEDPEAYQGLAHYLEHMSLMGSKKYPQADSLAEYLKMHGGSHNASTAPYRTAFYLEVENDALPGAVDRLADAIAEPLLDKKYAERERNAVNAELTMARTRDGMRMAQVSAETINPAHPGSKFSGGNLETLSDKPGNPVQQALKDFHEKYYSANLMKAVIYSNKPLPELAKMAADTFGRVPNKESKKPEITVPVVTDAQKGIIIHYVPALPRKVLRVEFRIDNNSAKFRSKTDELITYLIGNRSPGTLSDWLQKQGLVEGISANSDPIVNGNSGVLAISASLTDKGLANRDQVVAAIFSYLNLLREKGIDKQYFDELANVLDIDFRYPSITRDMDYVEWLADTMIRVPVEHTLDAVNIADRYDAKAVKERLAMMTPQNARIWYISPKEPHNKTAYFVDAPYQVDKISAQTFADWQKKAADIALSLPELNPYIPDDFSLIKSEKKYDHPELIVDESNLRVVYAPSRYFASEPKADVSLILRNPKAMDSARNQVMFALNDYLAGLALDQLSNQASVGGISFSTNANNGLMVNANGYTQRLPQLFQALLEGYFSYTATEDQLEQAKSWYNQMMDSAEKGKAFEQAIMPAQMLSQVPYFSRDERRKILPSITLKEVLAYRDALKSGARPEFMVIGNMTEAQATTLARDVQKQLGADGSEWCRNKDVVVDKKQSVIFEKAGNSTDSALAAVFVPTGYDEYTSSAYSSLLGQIVQPWFYNQLRTEEQLGYAVFAFPMSVGRQWGMGFLLQSNDKQPSFLWERYKAFFPTAEAKLRAMKPDEFAQIQQAVITQMLQAPQTLGEEASKLSKDFDRGNMRFDSRDKIVAQIKLLTPQKLADFFHQAVVEPQGMAILSQISGSQNGKAEYVHPEGWKVWENVSALQQTMPLMSEKNE
- protein production: not failed

Sequence: MKFILRLGLALLTGFVSVSTASAQAYGTADTNAPELRVPKSVQPAFDYWMRDTWATLGPDGYYYITGTTSTPDRHFPGQRHCWDWNDGLYLWRSKDLKIWEAMGRIWSMEKDGTWQKDPKVYKEGEKYAKKSINNDPMDNRFHAVWAPEMHYIKSAKNWFIVACMNQSAGGRGSFILRSTTGKPEGPYENIEGNEDKAIFPNIDGSLFEDTDGTVYFVGHNHYIARMKPDMSGLAEEIKTLKESKYSPEPYVEGAFIFKYDGKYHLVQAIWAHRTVKGDTYVEKEGLTNKKTRYSYDCIIATADNVYGPYGKRYNAITGGGHNNLFQDKDGNWWATMFFNPRGAQAAEYKVTCRPGLIPMLYENGKFKPNHNYQAK
- protein production: failed

Sequence: PSGFPQNLHVTGLTTSTTELAWDPPVLAERNGRIISYTVVFRDINSQQELQNITTDTRFTLTGLKPDTTYDIKVRAWTSKGSGPLSPSIQSRTMPV
- protein production: not failed

Sequence: MIFSPDAFTGSILAVEGIRDAAVILNGPTGCKLYHSFLSDRQFPRESSHDPLAFQDEFYFGQPRVPCTCLDGEDFIQGSLEKFERALAAVAAKEKGLLVVINSPGASLVGDDLENVIKNAGLQNRCFVVEKTGFSLPAAQGFENTTLTLLEHLKLRSLFRPHNRSEFPKKVNLIGLSLLHKHWEGSVAEMKRLLSFLGLEVGAILLAGTSLDEIRESNNAACNIVLFPEYGRRVAEWYRKHFGIPAVFSPLGAPLGFDANESLLREVAAILNIDPAPALAEVREARQTSYRQISRFHSFSGLPKGASFSIQAESSLVFPLTHWLYSYLGMAPYAVKLLPGSDPEMARSLKSFLTEKGFCEAWDRDLSLESVDIAFADSFTLQLLKAKGCCKAGIEISLPDRGYIHFIPKTYLGVSGALFLLEEIINGLRST
- protein production: failed

Sequence: MRLITNLLIIAILFSVPHVSIARIPEVVLSKKSAVVSIYVEDKQKIVAGGSGFIIDQNGIIVTNAHVIEPWNKSTTGILYVKKSDGTFLEPTEVIAADAVKDVALVRVKEQNLPFIKLTSNITPTQGDDVVVIGNPLGLETTVTDGIISAIRGEDGFLQISAPISQGSSGSPVLNSKGEAIGVATSIMAGGQNLNFAIPASYVTNLPTQEKAPPVKGLKKRAESPSGFETVTPEDIERDVVQIPEGAVHKGKVLFATDSGGYTYIRIEENGAPLWVAVTQTTISIGDIIEFPDSPPMTGFNSKSMNMTFDKITFAAGIRIVQRGNVEFKSPEEKHLYYAEQYSSMNNTPAAIEEISKAIELNPKKAEYYGKRANYYLQRRMYADSKSDEYQQIVASNRESCRNAVDDLNKAIAINPGNDVFYATQARIFTDSLFCDYANADKAIKLYETAIQLNPKKADYYVEKGWQHKIKNDFSKVLDCAKKALSISPNNEDAHYLYGSYYEENNKYDKALEYYTKGLSVSDNVTFGYFYIDGVMEKTKKYDDAVRIYTDLIKQHPKRLIFYNGRAEYYAKLKNYKKAIADYTTCIKLNPNSEYNYNLRANCYYEDGKKSEALTDYRTACDMKHAESCEMIPIVFADIKRGANWVPVAASSDVNYYYDKKGYTKNKNGVAVAWIRGEITDKEEYIKDIDISEYEKEKYKNVSHVMSRFEVDCPNQKLRVPISLIYAENGNVIRSYEDEKTKYSNIIPNSIGASIHENLCKGAPAKKIGKKK
- protein production: failed

Sequence: MCSKQSANQQISYRQTAEATLDKGMDNQPEAPYWFPKQLLKWQLSKDKAAKYNTASVPLAKRIDKWQLPTVNKTQDPKMKVVALSIMNSSTSGNAPRGINTFDANVFSNWQYIDQLVYWGGSAGEGLIVPPTADVIDSAHKNGVPVLGTVFFPQVVSGGKLKWLNDFLKQDADGHFPMADKLVAVAKAYGFDGWFINQETDPEVKSFDSASTGKTATSSTSNGLSKKHAQLMQQLIKEYKQKAGSKLDLMWYDSMTKDGKMDWQNALTKENQSYLVDANMKPVADSMFLNFWWTKKRLASQELLKKSHERAEKLGISPYNLFAGIDVQADGTATPVRWNLFANKQHVPYTSLGLYAPDWTHASSDTVDEFQAKEGALWVNDQNDPSRSIPSTTSTHWPGVSTYAVEQSAITKQPFVTNFSLGNGYNYFIKLEHHHHHH
- protein production: failed

Sequence: MGHHHHHHSHMVTHSKFPAAGMSRPLDTSLRLKTFSSKSEYQLVVNAVRKLQESGFYWSAVTGGEANLLLSAEPAGTFLIRDSSDQRHFFTLSVKTQSGTKNLRIQCEGGSFSLQSDPRSTQPVPRFDCVLKLVHHYMPPPGAPSFPSPPTEPSSEVPEQPSAQPLPGSPPRRAYYIYSGGEKIPLVLSRPLSSNVATLQHLCRKTVNGHLDSYEKVTQLPGPIREFLDQYDAPL
- protein production: failed

Sequence: MYELYTLLAEYYDTIYRRRIERVKAEIDFVEEIFKEDAKREVRRVLDLACGTGIPTLELAERGYEVVGLDLHEEMLRVARRKAKERNLKIEFLQGDVLEIAFKNEFDAVTMFFSTIMYFDEEDLRKLFSKVAEALKPGGVFITDFPCWFYGGRDGPVVWNEQKGEEKLVIMDWREVEPAVQKLRFKRLVQILRPNGEVKAFLVDDELNIYTPREVRLLAEKYFEKVKIYGNLKRELSPNDMRYWIVGIAKSF
- protein production: not failed

Sequence: MTKSHSQDQESTLLRLEHAQAILQRDAALAHIEHMRRSRSWRLTRPLRMLMQLLRHGVINDESEYPTHLPSLVQPLPASIPLEPDIVEDSTSGSAAQHFDLLCFANIDWSARFQRPQQLMTQFAIQGYRVFYIILSPLPAAERPYTAHPVAPGVFEITLRGHARQDYYATCITEGNLRANAEALQALVSDYRIKTAVSVVHLPYWTRLALHLRKAYGWPVQYDCMDEWQDFPNIGQPLLAQEQVLVEQADLVTVTASVLYDKWASTSRRCQLVRNGVDFDFFARCCTPNTLLEELQGPIIGFYGALAEWVDFELVAAIARQRPEWNLVLIGDVFVRDLAGLDRLPNVHLLGRKPYSQMPQYLYHFDVCIIPFRLYNVTHAVDPVKFYEFISAGKPVVAVPLLEMQIYEPYLYFADGPSAFVTQIERALGETDLQRWDQRLALARENDWRQRFEDTRDALVELFPKVSVIIVTYNNVQLTRGCIDSLLRNCAYPNLQLIIVDNASQDSTRNYLRYLARSEPNVSIVLNEQNLGFAAANNQGLRLAQGHYLVLLNNDTVVPKGWLAPLLRHLDDPEVGLVGPTTNAVGNEARVSIDYQDLDDMEDFADRRASQYRGRCFDIPMLAMFCVAMRREVLDQVGWLDEAFGIGMFEDDDYSRRVQAAGLRTVCAEDSYIHHYGQASFKALIASGEYQRLWDKNQAYFESKWGPWQPHRQARRRANADATKMKLTD
- protein production: failed

Sequence: MTAIDGQGKDQVIFVTKEEHETPSTVKQEEEDTNEDPKGKGLILPTGEINWDCPCLGGMASGVCGEQFKSAFTCFHFSQEEVKGSDCLEQFISMQECFHQHPELFPQDNNDLQTADPDQEHSSSISDFTTNKESDSLPTETDEIPTQLPVVS
- protein production: not failed

Sequence: MGHHHHHHSHMNSTECTLILTEGDSAKTLAVSGLGVVGRDKYGVFPLRGKILNVREASHKQIMENAEINNIIKIVGLQYKKNYEDEDSLKTLRYGKIMIMTDQDQDGSHIKGLLINFIHHNWPSLLRHRFLEEFITPIVKVSKNKQEMAFYSLPEFEEWKSSTPNHKKWKVKYYKGLGTSTSKEAKEYFADMKRHRIQFKYSGPEDDAAISLAFSKKQIDDRKEWLTNFMEDR
- protein production: failed

Sequence: MLRGILWDMDGTLVDSEGIWAQATFAMSTEMGRRLTAAQQRETVGSSFNFTVSLCASNAGIELDSEAKNYWQSFMSHYVTEKFDSSLLPNPGIKEVLDSCRNAEIPMAIATNTIRSIANHSIGAVGIEYFKATVCGDEVANPKPAPDVYLKGAQALGVPPEGCIVFEDSKSGMLGGLAAGCIVISVVDHLNNQPLPEGVVPLSRLHGSADFRGVSAEEIMQWYATLSPNAQ
- protein production: failed

Sequence: MKRAYVLLIGLSMLLISLIVPFPLALSFVILAGLFIAHFSKMEEKEVNMIITATVSLFIGLLGGLLGSMIHHNISSTWTLLSAHGGLFLIALIGYFFMVLILMTLGSMIDKVISKARSKSL
- protein production: failed

Sequence: MNVLDGAALEIGVPTVRTGIAGDGTLISVSGGSGADATPESDRILGALVLDDTHIDAVAVRRRRRGQGIGTALVEAALDRRDRLTAEFDADVRPFYEQLGFDVELLDDEDGRFRGIRK
- protein production: failed

Sequence: DIENSPIKDDNSIIEIFSYGCHYCAINEDNVSQLENRMPEGTRFIRLHISSDKTTGLGRFAPVFATLSVMGIEPQHRQSAYKAVLDDNSDLSDNRQLETWLKANDIDVAKYQQVSQSAEVKALISYMTAVTAHYKIDATPTFIVGKKWIALQDREFPAFSDHLLSLLEHD
- protein production: failed
